Results reported in patent US20210238260A1.

Molecular target: plasma purified human antithrombin III (AT-III), in complex with unfractionated heparin (UFH) (human) (UniProt P01008)
Experiment: inhibition of FIXa by AT-III/UFH, residual activity on Mesyl-D-CHG-Gly-Arg-AMC, pseudo-first-order

| Substance | kapp (apparent second-order rate constant for inhibition) |
| --- | --- |
| FIXa-Y155F/T343R/R403E/E410N (from UniProt P00740 47-191; P00740 227-461) (enzyme) | 880000 M⁻¹ s⁻¹ |
| FIXa-R318Y/T343R/E410N (from UniProt P00740 47-191; P00740 227-461) (enzyme) | 1.2e+06 M⁻¹ s⁻¹ |
| FIXa-Y155F/R318Y/T343R/R403E (from UniProt P00740 47-191; P00740 227-461) (enzyme) | 11000 M⁻¹ s⁻¹ |
| FIXa-Y155F/K247N/N249S/T343R/R403E/E410N (from UniProt P00740 47-191; P00740 227-461) (enzyme) | 620000 M⁻¹ s⁻¹ |
| FIXa-Y155F/R338E/T343R/E410N (from UniProt P00740 47-191; P00740 227-461) (enzyme) | 1.3e+07 M⁻¹ s⁻¹ |
| FIXa-K247N/N249S/R318Y/R338E/T343R/E410N (from UniProt P00740 47-191; P00740 227-461) (enzyme) | 210000 M⁻¹ s⁻¹ |
| FIXa-Y155F/K247N/N249S/R318Y/T343R/R403E/E410N (from UniProt P00740 47-191; P00740 227-461) (enzyme) | 28000 M⁻¹ s⁻¹ |
| FIXa-K228N/K247N/N249S/R318Y/R338E/T343R/R403E (from UniProt P00740 47-191; P00740 227-461) (enzyme) | 1000 M⁻¹ s⁻¹ |
| FIXa-Y155F/K247N/N249S/R338E/E410N (from UniProt P00740 47-191; P00740 227-461) (enzyme) | 2.9e+06 M⁻¹ s⁻¹ |
| FIXa-K247N/N249S/R318Y/R338E/T343R (from UniProt P00740 47-191; P00740 227-461) (enzyme) | 320000 M⁻¹ s⁻¹ |
| FIXa-R338E/T343R/E410N (from UniProt P00740 47-191; P00740 227-461) (enzyme) | 2e+07 M⁻¹ s⁻¹ |

Now from value to substance:

| kapp (apparent second-order rate constant for inhibition) | Substance |
| --- | --- |
| 25000 M⁻¹ s⁻¹ | FIXa-K247N/N249S/R318Y/T343R/R403E/E410N (from UniProt P00740 47-191; P00740 227-461) (enzyme) |
| 1.4e+07 M⁻¹ s⁻¹ | FIXa-K247N/N249S/R338E/T343R/E410N (from UniProt P00740 47-191; P00740 227-461) (enzyme) |
| 9800 M⁻¹ s⁻¹ | FIXa-K247N/N249S/R318Y/T343R/R403E (from UniProt P00740 47-191; P00740 227-461) (enzyme) |
| 17000 M⁻¹ s⁻¹ | FIXa-K228N/K247N/N249S/R318Y/T343R/R403E/E410N (from UniProt P00740 47-191; P00740 227-461) (enzyme) |
| 7100 M⁻¹ s⁻¹ | FIXa-K228N/R318Y/R338E/T343R/R403E/E410N (from UniProt P00740 47-191; P00740 227-461) (enzyme) |
| 12000 M⁻¹ s⁻¹ | FIXa-Y155F/K247N/N249S/R318Y/T343R/R403E (from UniProt P00740 47-191; P00740 227-461) (enzyme) |
| 50000 M⁻¹ s⁻¹ | FIXa-K247N/N249S/R338E/T343R/R403E (from UniProt P00740 47-191; P00740 227-461) (enzyme) |
| 49000 M⁻¹ s⁻¹ | FIXa-K247N/N249S/R318Y/T343R/E410N (from UniProt P00740 47-191; P00740 227-461) (enzyme) |
| 370000 M⁻¹ s⁻¹ | FIXa-Y155F/K247N/N249S/R318Y/R338E/T343R (from UniProt P00740 47-191; P00740 227-461) (enzyme) |
| 44000 M⁻¹ s⁻¹ | FIXa-Y155F/K247N/N249S/R338E/T343R/R403E (from UniProt P00740 47-191; P00740 227-461) (enzyme) |
| 1.8e+06 M⁻¹ s⁻¹ | FIXa-R318Y/R338E/T343R (from UniProt P00740 47-191; P00740 227-461) (enzyme) |
| 360000 M⁻¹ s⁻¹ | FIXa-Y155F/K247N/N249S/R318Y/T343R/E410N (from UniProt P00740 47-191; P00740 227-461) (enzyme) |
| 130000 M⁻¹ s⁻¹ | FIXa-Y155F/K247N/N249S/R403E/E410N (from UniProt P00740 47-191; P00740 227-461) (enzyme) |
| 200000 M⁻¹ s⁻¹ | FIXa-Y155F/R318Y/T343R/E410N (from UniProt P00740 47-191; P00740 227-461) (enzyme) |
| 630000 M⁻¹ s⁻¹ | FIXa-K228N/K247N/N249S/R318Y/R338E/T343R/E410N (from UniProt P00740 47-191; P00740 227-461) (enzyme) |

Molecular target: Antithrombin III (ATIII) (human) (UniProt P01008)
Experiment: inhibition of FIXa by ATIII, residual FIXa activity; heparin not given

| ATIII Kapp (second-order rate constant of inhibition) | Substance |
| --- | --- |
| 1.1e+06 M⁻¹ s⁻¹ | FIX of SEQ ID NO: 394, with the replacements R318Y/R338E/T343R (activated, FIXa) (from UniProt P00740 47-191; P00740 227-461) (enzyme) |

Molecular target: antithrombin III (plasma purified human AT-III), in complex with unfractionated heparin (human) (UniProt P01008)
Experiment: AT-III/UFH inhibition of FIXa; residual activity on Pefafluor FIXa substrate, varied incubation time

| Substance | kapp (apparent second-order rate constant for inhibition) |
| --- | --- |
| FIXa D104N/K106S/I251S/R318Y/R338E/R403E/E410N (from UniProt P00740 47-191; P00740 227-461) (enzyme) | 5700 M⁻¹ s⁻¹ |
| FIXa I251S/R318Y/R338E/R403E/E410N (from UniProt P00740 47-191; P00740 227-461) (enzyme) | 3000 M⁻¹ s⁻¹ |
| FIXa Y345T (from UniProt P00740 47-191; P00740 227-461) (enzyme) | 1.8e+06 M⁻¹ s⁻¹ |
| FIXa Y155F/N346D (from UniProt P00740 47-191; P00740 227-461) (enzyme) | 4e+06 M⁻¹ s⁻¹ |
| FIXa Y155F/R318Y/R403E/E410N (from UniProt P00740 47-191; P00740 227-461) (enzyme) | 8100 M⁻¹ s⁻¹ |
| FIXa K247N/N249S/R318Y/R338E/E410N (from UniProt P00740 47-191; P00740 227-461) (enzyme) | 860000 M⁻¹ s⁻¹ |
| FIXa N346Y (from UniProt P00740 47-191; P00740 227-461) (enzyme) | 840000 M⁻¹ s⁻¹ |
| FIXa Y155F/K247N/N249S/R318Y/R338E/E410N (from UniProt P00740 47-191; P00740 227-461) (enzyme) | 180000 M⁻¹ s⁻¹ |
| FIXa D104N/K106S/Y155F/K247N/N249S/R318Y/R338E/R403E/E410N (from UniProt P00740 47-191; P00740 227-461) (enzyme) | 1000 M⁻¹ s⁻¹ |
| FIXa Y155F/K228N/R318Y/R338E/R403E/E410N (from UniProt P00740 47-191; P00740 227-461) (enzyme) | 4600 M⁻¹ s⁻¹ |
| FIXa I251S/R318Y/R338E/E410N (from UniProt P00740 47-191; P00740 227-461) (enzyme) | 240000 M⁻¹ s⁻¹ |
| FIXa K228N/R318Y/E410N (from UniProt P00740 47-191; P00740 227-461) (enzyme) | 1.9e+06 M⁻¹ s⁻¹ |

Continued, values first:

| kapp (apparent second-order rate constant for inhibition) | Substance |
| --- | --- |
| 1700 M⁻¹ s⁻¹ | FIXa A103N/N105S/K247N/N249S/R318Y/R338E/R403E/E410N (from UniProt P00740 47-191; P00740 227-461) (enzyme) |
| 620000 M⁻¹ s⁻¹ | FIXa R318Y/R338E (from UniProt P00740 47-191; P00740 227-461) (enzyme) |
| 1600 M⁻¹ s⁻¹ | FIXa Y155F/K247N/N249S/R318Y/R338E/R403E/E410N (from UniProt P00740 47-191; P00740 227-461) (enzyme) |
| 5e+06 M⁻¹ s⁻¹ | FIXa T343R/Y345T (from UniProt P00740 47-191; P00740 227-461) (enzyme) |
| 2600 M⁻¹ s⁻¹ | FIXa A103N/N105S/R318Y/R338E/R403E/E410N (from UniProt P00740 47-191; P00740 227-461) (enzyme) |
| 450000 M⁻¹ s⁻¹ | FIXa Y155F/R318Y/R338E/E410N (from UniProt P00740 47-191; P00740 227-461) (enzyme) |
| 2.1e+06 M⁻¹ s⁻¹ | FIXa T343Q (from UniProt P00740 47-191; P00740 227-461) (enzyme) |
| 2900 M⁻¹ s⁻¹ | FIXa D104N/K106S/Y155F/R318Y/R338E/R403E/E410N (from UniProt P00740 47-191; P00740 227-461) (enzyme) |
| 28000 M⁻¹ s⁻¹ | FIXa R318Y/R403E/E410N (from UniProt P00740 47-191; P00740 227-461) (enzyme) |
| 2900 M⁻¹ s⁻¹ | FIXa K228N/R318Y/R338E/R403E/E410N (from UniProt P00740 47-191; P00740 227-461) (enzyme) |
| 1600 M⁻¹ s⁻¹ | FIXa R318Y/R338E/R403E/E410S (from UniProt P00740 47-191; P00740 227-461) (enzyme) |
| 3000 M⁻¹ s⁻¹ | FIXa D85N/K228N/R318Y/R338E/R403E/E410N (from UniProt P00740 47-191; P00740 227-461) (enzyme) |
| 4.2e+06 M⁻¹ s⁻¹ | FIXa T343R (from UniProt P00740 47-191; P00740 227-461) (enzyme) |
| 2000 M⁻¹ s⁻¹ | FIXa K247N/N249S/R318Y/R338E/R403E/E410N (from UniProt P00740 47-191; P00740 227-461) (enzyme) |
| 3900 M⁻¹ s⁻¹ | FIXa D104N/K106S/R318Y/R338E/R403E/E410N (from UniProt P00740 47-191; P00740 227-461) (enzyme) |
| 53000 M⁻¹ s⁻¹ | FIXa D203N/F205T/R318Y/E410N (from UniProt P00740 47-191; P00740 227-461) (enzyme) |
